Target: the molecule itself
Test: cross-linking

B1: sigma-1 receptor cysteine 94 alanine / methionine 170 cysteine (C94A/M170C) double mutant (receptor, guinea pig, UniProt Q60492 1-223, looked up)
chain: MQWAVGRRWLWVALFLAAVAVLTQIVWLWLGTQNFVFQREEIAQLARQYAGLDHELAFSKLIVELRRLHPVHVLPDEELQWVFVNAGGWMGAMALLHASLSEYVLLFGTALGSPRHSGRYWAEISDTIISGTFHQWREGTTKSEVFYPGETVVHGPGEATAVEWGPNTWCVEYGRGVIPSTLGFALADTVFSTQDFLTLFYTLRVYARALQLELTTYLFGQDP
For B1, the “stoichiometry N” value was 2.

From PMC3581363 (Biochemistry, 2013)
